Reference: US20230265124A1 (ARIZONA BOARD OF REGENTS ON BEHALF OF THE UNIVERSITY OF …, published 2023)
Bridges are numbered along the chain shown (N, C = ends). Where no end group is shown, it is not given here. [ ]: non-standard residue; d: D form. glucose = glucose (covalently linked to the residue side chain); Dap = NC[C@H](N)C(=O)O; Aib = CC(C)(N)C(=O)O

B1: 2LS118-4 (peptide)
peptide: DYIQN[Dap]PLS(glucose)-NH2
modifications: lactam 1-6
notes: Synthetic cyclic glycopeptide: Asp-Tyr-Ile-Gln-Asn-Dap-Pro-Leu-SerGlc-CONH2, cyclized AA1-AA6; also called compound 2LS118-4
B2: 2LS118-2 (peptide)
peptide: EYIQN[Dap]PLG-NH2
modifications: lactam 1-6; N-terminus assumed
SMILES: CC[C@H](C)[C@@H]1NC(=O)[C@H](Cc2ccc(O)cc2)NC(=O)[C@@H](N)CCC(=O)NC[C@@H](C(=O)N2CCC[C@H]2C(=O)N[C@@H](CC(C)C)C(=O)NCC(N)=O)NC(=O)[C@H](CC(N)=O)NC(=O)[C@H](CCC(N)=O)NC1=O
notes: Synthetic cyclic oxytocin analogue: Glu-Tyr-Ile-Gln-Asn-Dap-Pro-Leu-Gly-CONH2, cyclized AA1-AA6
B3: SSoxy4 (peptide)
peptide: EYIQN[Dap]PLS(glucose)-NH2
modifications: lactam 1-6
notes: Synthetic cyclic glycopeptide: Glu-Tyr-Ile-Gln-Asn-Dap-Pro-Leu-SerGlc-CONH2, cyclized AA1-AA6
B4: 2LS118-1 (peptide)
peptide: DYIQN[Dap]PLG-NH2
modifications: lactam 1-6; N-terminus assumed
SMILES: CC[C@H](C)[C@@H]1NC(=O)[C@H](Cc2ccc(O)cc2)NC(=O)[C@@H](N)CC(=O)NC[C@@H](C(=O)N2CCC[C@H]2C(=O)N[C@@H](CC(C)C)C(=O)NCC(N)=O)NC(=O)[C@H](CC(N)=O)NC(=O)[C@H](CCC(N)=O)NC1=O
notes: Synthetic cyclic oxytocin analogue: Asp-Tyr-Ile-Gln-Asn-Dap-Pro-Leu-Gly-CONH2, cyclized AA1-AA6; also called compound 2LS118-1
B5: SSoxy1 (peptide)
peptide: DYIQN[Dap]PLS(lactose)-NH2
modifications: lactam 1-6
notes: Synthetic cyclic glycopeptide: Asp-Tyr-Ile-Gln-Asn-Dap-Pro-Leu-SerLact-CONH2, cyclized AA1-AA6
B6: 2LS118-6 (peptide)
peptide: DYIQN[Dap]PLGS(glucose)S(glucose)-NH2
modifications: lactam 1-6
notes: Synthetic cyclic glycopeptide: Asp-Tyr-Ile-Gln-Asn-Dap-Pro-Leu-Gly-(SerGlc)2-CONH2, cyclized AA1-AA6
B7: SSoxy3 (peptide)
peptide: DYIQN[Dap]P[Aib]S(glucose)-NH2
modifications: lactam 1-6
notes: Synthetic cyclic glycopeptide: Asp-Tyr-Ile-Gln-Asn-Dap-Pro-Aib-SerGlc-CONH2, cyclized AA1-AA6
B8: SSoxy5 (peptide)
peptide: EYIQN[Dap]P[Aib]S(glucose)-NH2
modifications: lactam 1-6
notes: Synthetic cyclic glycopeptide: Glu-Tyr-Ile-Gln-Asn-Dap-Pro-Aib-SerGlc-CONH2, cyclized AA1-AA6
B9: SSoxy6 (peptide)
peptide: EYIQN[Dap]P[Aib]GS(glucose)-NH2
modifications: lactam 1-6
notes: Synthetic cyclic glycopeptide: Glu-Tyr-Ile-Gln-Asn-Dap-Pro-Aib-Gly-SerGlc-CONH2, cyclized AA1-AA6
B10: 2LS118-3 (peptide)
peptide: [Dap]YIQNDPLG-NH2
modifications: lactam 1-6; N-terminus assumed
SMILES: CC[C@H](C)[C@@H]1NC(=O)[C@H](Cc2ccc(O)cc2)NC(=O)[C@@H](N)CNC(=O)C[C@@H](C(=O)N2CCC[C@H]2C(=O)N[C@@H](CC(C)C)C(=O)NCC(N)=O)NC(=O)[C@H](CC(N)=O)NC(=O)[C@H](CCC(N)=O)NC1=O
B11: 2LS118-5 (peptide)
peptide: DYIQN[Dap]PLGS(glucose)-NH2
modifications: lactam 1-6
notes: Synthetic cyclic glycopeptide: Asp-Tyr-Ile-Gln-Asn-Dap-Pro-Leu-Gly-SerGlc-CONH2, cyclized AA1-AA6
B12: SSoxy2 (peptide)
peptide: DYIQN[Dap]PLGS(lactose)-NH2
modifications: lactam 1-6
notes: Synthetic cyclic glycopeptide: Asp-Tyr-Ile-Gln-Asn-Dap-Pro-Leu-Gly-SerLact-CONH2, cyclized AA1-AA6

Molecular target: T1, human Mu Opioid Receptor (MOR) (human, UniProt P35372 1-400)
T1 construct: whole, on cells; also called MOR-CHO(PE)
Assay: competition binding against [3H]diprenorphine on MOR-CHO(PE) membranes
Procedure: Competition Binding at MOR-CHO(PE) Presence of [3H]Diprenorphine: The compounds were also tested for off-target binding to the human Mu Opioid Receptor (MOR), also expressed in CHO cells. Briefly, the experiment involved: Protein: MOR-CHO(PE) Passage: 16; previously frozen cell pellets used and prepared. Protein 15 ug/well used. Serial dilution of compounds and Naloxone(control) used. Total binding absence of compound used, 10uM Naloxone used for nonspecific binding. Each well contained membrane 15 ug/well protein and 2.48 nM Radioligand final conc. Incubated 1 hour in R/T; harvested on GF/B filter, dried O/N. Data are normalized to % Specific binding. MOR-CHO(PE) cell Kd:5.27±2.39 nM. Data are expressed as mean of a single experiment, performed in triplicate. Vehicle contained 0.1% DMSO and 0.1% BSA. (Radioligand:#23067 Lot:2548344 NET: 1121250UC). Table 1 below also summarizes overall MOR binding profile of cyclic oligopeptides of the invention compared to naloxone.

T1 sequence (P35372 whole entry): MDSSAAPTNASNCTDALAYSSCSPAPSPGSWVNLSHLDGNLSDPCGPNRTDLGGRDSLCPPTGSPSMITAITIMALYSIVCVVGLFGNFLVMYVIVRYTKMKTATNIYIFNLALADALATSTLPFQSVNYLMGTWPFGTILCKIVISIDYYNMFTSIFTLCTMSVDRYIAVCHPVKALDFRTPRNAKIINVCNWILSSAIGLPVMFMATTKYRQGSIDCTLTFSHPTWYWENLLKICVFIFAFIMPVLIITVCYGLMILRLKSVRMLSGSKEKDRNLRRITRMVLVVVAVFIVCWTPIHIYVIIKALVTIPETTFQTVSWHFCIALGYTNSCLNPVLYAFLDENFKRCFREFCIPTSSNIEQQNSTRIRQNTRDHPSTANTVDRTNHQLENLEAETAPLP

Binder	IC50 [nM]	Ki [nM]
B1	> 2500	> 2500
B2	> 2500	> 2500
B3	> 2500	> 2500
B4	> 2500	> 2500
B5	> 2500	> 2500
B6	> 2500	> 2500
B7	> 2500	> 2500
B8	> 2500	> 2500
B9	> 2500	> 2500
B10	> 2500	> 2500
B11	> 2500	> 2500
B12	> 2500	> 2500
